T1: human TIGIT (human, UniProt Q495A1 22-141, limits assumed)
T1 construct: also called hTIGIT
T1 sequence (looked up): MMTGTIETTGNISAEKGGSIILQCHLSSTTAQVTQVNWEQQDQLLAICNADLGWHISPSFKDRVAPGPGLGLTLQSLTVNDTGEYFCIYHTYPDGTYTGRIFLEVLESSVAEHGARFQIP


Biological target: T1, human TIGIT
Test: monovalent affinity of the hTIGIT IgGs; method not named in Example 14

Row | Binder | Kd [nM]
1 | TIGIT-55-01 (antibody, V domains shown, hTIGIT IgG) VH: EVQLLESGGGLVQPGGSLRLSCAASGFTFGSYGMSWVRQAPGKGLEWVSSISGSGSTTYYADSVKGRFTISRDNSKNTLYLQMNSLRAEDTAVYYCARVAGSSGWAFDYWGQGTLVTVSS VL: DIQMTQSPSSLSASVGDRVTITCRASQAISNYLNWYQQKPGKAPKLLIYAASRLQSGVPSRFSGSGSGTDFTLTISSLQPEDFATYYCQESYSTPFTFGGGTKVEIK | 15.9
2 | TIGIT-55-06 (antibody, V domains shown, hTIGIT IgG) VH: EVQLLESGGGLVQPGGSLRLSCAASGFTFSRYTMNWVRQAPGKGLEWVSGISGSGGGAYYADSVKGRFTISRDNSKNTLYLQMNSLRAEDTAVYYCARNSYGPPRSFGMDVWGQGTLVTVSS VL: DIQMTQSPSSLSASVGDRVTITCRASQSISKYLNWYQQKPGKAPKLLIYGASSLRGGVPSRFSGSGSGTDFTLTISSLQPEDFATYYCQQSYRPPLTFGGGTKVEIK | 153
3 | TIGIT-55-02 (antibody, V domains shown, hTIGIT IgG) VH: EVQLLESGGGLVQPGGSLRLSCAASGLTFSNYAMTWVRQAPGKGLEWVSGISRSGGSTYYADSVKGRFTISRDNSKNTLYLQMNSLRAEDTAVYYCATLRLYSSGGGIDYWGQGTLVTVSS VL: DIQMTQSPSSLSASVGDRVTITCRASQYISTYLNWYQQKPGKAPKLLIYAASSLQGGVPSRFSGSGSGTDFTLTISSLQPEDFATYYCQQNYITPLTFGGGTKVEIK | 141
4 | TIGIT-55-07 (antibody, V domains shown, hTIGIT IgG) VH: EVQLLESGGGLVQPGGSLRLSCAASGFTFSSYGMTWVRQAPGKGLEWVSAISGRGSSTYYADSVKGRFTISRDNSKNTLYLQMNSLRAEDTAVYYCARTPYRSGWADYWGQGTLVTVSS VL: DIQMTQSPSSLSASVGDRVTITCRASQNIKTYLNWYQQKPGKAPKLLIYAASSLHTGVPSRFSGSGSGTDFTLTISSLQPEDFATYYCQQTYSIPQTFGGGTKVEIK | 231
5 | TIGIT-55-05 (antibody, V domains shown, hTIGIT IgG) VH: EVQLLESGGGLVQPGGSLRLSCAASGFVFSSYAMNWVRQAPGKGLEWVSTVSGSGGTTYYADSVKGRFTISRDNSKNTLYLQMNSLRAEDTAVYYCARAPYSSSSWFDYWGQGTLVTVSS VL: DIQMTQSPSSLSASVGDRVTITCRASQSVRSYLNWYQQKPGKAPKLLIYTATSLESGVPSRFSGSGSGTDFTLTISSLQPEDFATYYCQQSYGLPRTFGGGTKVEIK | 97.6

The next lines start with the values.

Row | Kd [nM] | Binder
6 | 148 | TIGIT-55-12 (antibody, V domains shown, hTIGIT IgG) VH: EVQLLESGGGLVQPGGSLRLSCAASGFTLSSYAMAWVRQAPGKGLEWVSTLSGSGGSTYYADSVKGRFTISRDNSKNTLYLQMNSLRAEDTAVYYCARVRVGAYDAFDIWGQGTLVTVSS VL: DIQMTQSPYSLSASVGDRVTITCRASQSIRRYLNWYQQKPGKAPKLLIYRASTLQTGVPSRFSGSGSGTDFTLTISSLQPEDFATYYCQQTYSSPFTFGGGTKVEIK
7 | 112 | TIGIT-55-13 (antibody, V domains shown, hTIGIT IgG) VH: EVQLLESGGGLVQPGGSLRLSCAASGFTFSTYGMNWVRQAPGKGLEWVSTISGSGGSTYFADSVKGRFTISRDNSKNTLYLQMNSLRAEDTAVYYCARNSGWFMPFDYWGQGTLVTVSS VL: DIQMTQSPSSLSASVGDRVTITCRTSQSISTYLNWYQQKPGKAPKLLIYATSRLQSGVPSRFSGSGSGTDFTLTISSLQPEDFATYYCQQSYTTPLTFGGGTKVEIK
8 | 113 | TIGIT-55-08 (antibody, V domains shown, hTIGIT IgG) VH: EVQLLESGGGLVQPGGSLRLSCAASGFMFSDYAMSWVRQAPGKGLEWVSGISGSGGYTYYADSVKGRFTISRDNSKNTLYLQMNSLRAEDTAVYYCTRSWYYYYGMDVWGQGTLVTVSS VL: DIQMTQSPSSLSASVGDRVTITCRAGQSIRSYLNWYQQKPGKAPKLLIYASSNLQSGVPSRFSGSGSGTDFTLTISSLQPEDFATYYCQQSYSTPLLTFGGGTKVEIK
9 | 327 | TIGIT-55-11 (antibody, V domains shown, hTIGIT IgG) VH: EVQLLESGGGLVQPGGSLRLSCAASGFTFTNYGMSWVRQAPGKGLEWVSSISGSGSTTYYADSVKGRFTISRDNSKNTLYLQMNSLRAEDTAVYYCASVKRWGYYFNWWGQGTLVTVSS VL: DIQMTQSPSSLSASVGDRVTITCRASQNINYYLNWYQQKPGKAPKLLIYGASSLQNGVPSRFSGSGSGTDFTLTISSLQPEDFATYYCQQSYITPYTGGGTKVEIK

Source: US20210102195A1 (TWIST BIOSCIENCE, published 2021)
